# Measurements taken from paper PMC7246612, “The In Vitro Non-Tetramerizing ZapA^I83E Mutant Is Unable to Recruit ZapB to the Division Plane In Vivo in Escherichia coli” (International Journal of Molecular Sciences, 2020).
# T1: mKO–PBP1a (inner membrane protein PBP1a fused to mKO) (UniProt P02918 1-850)
# T1 construct: PBP1a, inner membrane protein; Negative control partner in the FRET assay; also called pBB004; pSAV–mKO–PBP1a; source: E. coli TB28 ∆zapA, expressed from plasmid pBB004, in living cells; not shown: mKO, N-terminal, kept
# T1 sequence (looked up): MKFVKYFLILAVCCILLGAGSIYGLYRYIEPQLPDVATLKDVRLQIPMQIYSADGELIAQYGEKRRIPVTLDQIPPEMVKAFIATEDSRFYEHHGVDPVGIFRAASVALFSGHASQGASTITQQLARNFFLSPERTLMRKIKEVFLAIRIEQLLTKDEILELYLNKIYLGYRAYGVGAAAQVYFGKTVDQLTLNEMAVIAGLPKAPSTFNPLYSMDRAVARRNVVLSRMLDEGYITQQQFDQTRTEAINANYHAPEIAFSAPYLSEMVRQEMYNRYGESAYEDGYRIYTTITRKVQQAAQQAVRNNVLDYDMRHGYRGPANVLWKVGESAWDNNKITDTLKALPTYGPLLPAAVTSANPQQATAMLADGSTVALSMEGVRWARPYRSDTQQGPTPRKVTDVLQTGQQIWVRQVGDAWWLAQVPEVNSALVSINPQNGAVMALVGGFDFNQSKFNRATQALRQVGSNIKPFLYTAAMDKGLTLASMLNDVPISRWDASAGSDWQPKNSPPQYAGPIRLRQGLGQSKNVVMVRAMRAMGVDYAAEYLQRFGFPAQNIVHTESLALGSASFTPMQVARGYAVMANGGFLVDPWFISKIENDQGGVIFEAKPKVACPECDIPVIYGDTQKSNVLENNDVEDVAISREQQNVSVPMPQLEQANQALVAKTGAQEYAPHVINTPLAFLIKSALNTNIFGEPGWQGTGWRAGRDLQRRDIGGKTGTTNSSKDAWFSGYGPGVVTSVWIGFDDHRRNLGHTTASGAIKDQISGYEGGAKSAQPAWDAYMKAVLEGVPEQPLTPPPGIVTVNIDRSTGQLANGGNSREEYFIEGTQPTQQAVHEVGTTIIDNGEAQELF
# T2: mKO–FtsZ (filamenting temperature-sensitive Z fused to mKO) (Escherichia coli, UniProt P0A9A6 1-383)
# T2 construct: filamenting temperature-sensitive Z (FtsZ), Escherichia coli; also called pSAV072; pSAV–mKO–FtsZ; source: E. coli TB28 ∆zapA or WT strain, expressed from plasmid pSAV072, in living cells; not shown: mKO, N-terminal, kept
# T2 sequence (looked up): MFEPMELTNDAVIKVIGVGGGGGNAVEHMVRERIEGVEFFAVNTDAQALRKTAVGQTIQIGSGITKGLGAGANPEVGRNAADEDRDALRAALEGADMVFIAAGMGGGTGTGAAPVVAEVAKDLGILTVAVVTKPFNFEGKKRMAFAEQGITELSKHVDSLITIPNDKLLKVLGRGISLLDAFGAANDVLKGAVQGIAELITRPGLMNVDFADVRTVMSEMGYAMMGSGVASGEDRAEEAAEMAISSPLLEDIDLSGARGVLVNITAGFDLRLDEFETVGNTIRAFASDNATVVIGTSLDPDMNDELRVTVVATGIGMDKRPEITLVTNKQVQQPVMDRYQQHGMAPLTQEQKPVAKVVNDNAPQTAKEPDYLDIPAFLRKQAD
# Key:
# [1] = target: T1, mKO–PBP1a (inner membrane protein PBP1a …); experiment: FRET or BRET; in vivo FRET in E. coli TB28 ∆zapA cells; mKO fusion (donor) and mCh fusion (acceptor) expressed from plasmids; energy transfer efficiency (EfA) by spectral unmixing; details: partners not purified
# [2] = target: T2, mKO–FtsZ (filamenting …); experiment: as above; details: partners not purified
EfA (energy transfer efficiency) [1] [%],EfA (energy transfer efficiency) [2] [%],Binder
< 1.7,–,"mCh–PBP1b (PBP1b fused to mCh) (natural protein, UniProt P02919 1-844, looked up, PBP1b; Negative control in the FRET assay; also called pBB008; pTHV–mCh–PBP1b; source: E. coli TB28 ∆zapA, expressed from plasmid pBB008, in living cells; not shown: mCh, N-terminal, kept) MAGNDREPIGRKGKPTRPVKQKVSRRRYEDDDDYDDYDDYEDEEPMPRKGKGKGKGRKPRGKRGWLWLLLKLAIVFAVLIAIYGVYLDQKIRSRIDGKVWQLPAAVYGRMVNLEPDMTISKNEMVKLLEATQYRQVSKMTRPGEFTVQANSIEMIRRPFDFPDSKEGQVRARLTFDGDHLATIVNMENNRQFGFFRLDPRLITMISSPNGEQRLFVPRSGFPDLLVDTLLATEDRHFYEHDGISLYSIGRAVLANLTAGRTVQGASTLTQQLVKNLFLSSERSYWRKANEAYMALIMDARYSKDRILELYMNEVYLGQSGDNEIRGFPLASLYYFGRPVEELSLDQQALLVGMVKGASIYNPWRNPKLALERRNLVLRLLQQQQIIDQELYDMLSARPLGVQPRGGVISPQPAFMQLVRQELQAKLGDKVKDLSGVKIFTTFDSVAQDAAEKAAVEGIPALKKQRKLSDLETAIVVVDRFSGEVRAMVGGSEPQFAGYNRAMQARRSIGSLAKPATYLTALSQPKIYRLNTWIADAPIALRQPNGQVWSPQNDDRRYSESGRVMLVDALTRSMNVPTVNLGMALGLPAVTETWIKLGVPKDQLHPVPAMLLGALNLTPIEVAQAFQTIASGGNRAPLSALRSVIAEDGKVLYQSFPQAERAVPAQAAYLTLWTMQQVVQRGTGRQLGAKYPNLHLAGKTGTTNNNVDTWFAGIDGSTVTITWVGRDNNQPTKLYGASGAMSIYQRYLANQTPTPLNLVPPEDIADMGVDYDGNFVCSGGMRILPVWTSDPQSLCQQSEMQQQPSGNPFDQSSQPQQQPQQQPAQQEQKDSDGVAGWIKDMFGSN"
< 1.7,4,"mCh–ZapA (wild-type Z-associated protein A fused to mCh) (natural protein, Escherichia coli, UniProt P0ADS2 1-109, looked up, Z-associated protein A (ZapA), Escherichia coli; also called mCh–ZapA^WT; ZapA^WT; source: E. coli TB28 ∆zapA or WT strain, expressed from plasmid pSAV077, in living cells; not shown: mCh, N-terminal, kept) MSAQPVDIQIFGRSLRVNCPPDQRDALNQAADDLNQRLQDLKERTRVTNTEQLVFIAALNISYELAQEKAKTRDYAASMEQRIRMLQQTIEQALLEQGRITEKTNQNFE"
< 1.7,–,"mCh–ZapA^I83E (in vitro non-tetramerizing ZapA mutant fused to mCh) (natural protein, Escherichia coli, UniProt P0ADS2 1-109, looked up, Z-associated protein A (ZapA), Escherichia coli, with I83E; made by exchanging zapA in pSAV077 with zapA^I83E from pRP071; also called pNM137; pTHV–mCh–ZapA^I83E; source: E. coli TB28 ∆zapA or WT strain, expressed from plasmid pNM137, in living cells; not shown: mCh, N-terminal, kept) MSAQPVDIQIFGRSLRVNCPPDQRDALNQAADDLNQRLQDLKERTRVTNTEQLVFIAALNISYELAQEKAKTRDYAASMEQRERMLQQTIEQALLEQGRITEKTNQNFE"
